Patent publication US20230192890A1 (published 2023)
Substitutions are numbered along the chain they refer to. Values belong to the binder of their own block, whether it stands above or below them.

Tests used:
[1] = biological target: full-length recombinant human or mouse PAD4 (Example 4; which of the two is not told for the result); assay: cell-based or functional assay
[2] = biological target: T1, full-length recombinant human PAD4 (human, UniProt Q9UM07 1-663); assay: Biacore T200, human PAD4 as analyte
T1 construct: also called peptidylarginine deiminase 4
T1 sequence (Q9UM07 whole entry): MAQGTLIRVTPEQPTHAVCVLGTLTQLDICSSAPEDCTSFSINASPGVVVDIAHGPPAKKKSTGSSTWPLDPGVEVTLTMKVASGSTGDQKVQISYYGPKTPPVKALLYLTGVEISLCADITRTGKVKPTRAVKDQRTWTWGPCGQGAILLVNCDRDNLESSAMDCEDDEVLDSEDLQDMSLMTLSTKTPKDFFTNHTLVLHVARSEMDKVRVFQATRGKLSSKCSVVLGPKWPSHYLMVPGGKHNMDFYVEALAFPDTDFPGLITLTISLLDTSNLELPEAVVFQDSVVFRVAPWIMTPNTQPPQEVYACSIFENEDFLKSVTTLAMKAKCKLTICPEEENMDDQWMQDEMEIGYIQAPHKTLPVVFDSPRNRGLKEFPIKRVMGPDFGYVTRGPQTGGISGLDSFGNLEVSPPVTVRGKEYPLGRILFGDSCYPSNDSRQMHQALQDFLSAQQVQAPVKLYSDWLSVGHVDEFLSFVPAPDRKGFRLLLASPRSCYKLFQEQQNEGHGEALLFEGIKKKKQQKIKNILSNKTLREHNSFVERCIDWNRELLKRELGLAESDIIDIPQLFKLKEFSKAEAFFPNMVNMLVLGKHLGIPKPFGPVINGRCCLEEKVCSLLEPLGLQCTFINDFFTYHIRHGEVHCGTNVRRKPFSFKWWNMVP

Ala mutant SEQ ID NO: 34 = biological target: T2, Ala mutant SEQ ID NO: 34 (human); assay: ELISA, peptide on plate (10 ug/mL)
T2 peptide: EENMDDQAMQDEMEIGY

Ala mutant SEQ ID NO: 35 = biological target: T3, Ala mutant SEQ ID NO: 35 (human); assay: ELISA, peptide on plate (10 ug/mL)
T3 peptide: EENMDDQWAQDEMEIGY

[3] = biological target: T4, Ala mutant having 3-amino acid substitution, SEQ ID NO: 45 (human); assay: ELISA, peptide on plate (10 ug/mL)
T4 peptide: EENAAAQWMQDEMEIGY

[4] = biological target: T5, Ala mutant having 3-amino acid substitution, SEQ ID NO: 46 (human); assay: ELISA, peptide on plate (10 ug/mL)
T5 peptide: EENMDDAAAQDEMEIGY

[5] = biological target: T1, full-length recombinant human PAD4; assay: ELISA, human PAD4 on plate, antibody 1 ug/mL
[6] = biological target: T1, full-length recombinant human PAD4; assay: ELISA, human PAD4 on plate, antibody 0.25 ug/mL
[7] = biological target: T1, full-length recombinant human PAD4; assay: ELISA, human PAD4 on plate, antibody 0.0625 ug/mL
[8] = biological target: T1, full-length recombinant human PAD4; assay: ELISA, human PAD4 on plate, antibody 0.015625 ug/mL
[9] = biological target: T1, full-length recombinant human PAD4; assay: ELISA, human PAD4 on plate, antibody 0.0002441 ug/mL
[10] = biological target: T1, full-length recombinant human PAD4; assay: ELISA, human PAD4 on plate, antibody 0.0009766 ug/mL
[11] = biological target: T1, full-length recombinant human PAD4; assay: ELISA, human PAD4 on plate, antibody 0.0039063 ug/mL
[12] = biological target: T1, full-length recombinant human PAD4; assay: ELISA, human PAD4 on plate, antibody 6.104E-05 ug/mL
Ala mutant SEQ ID NO: 32 = biological target: T6, Ala mutant SEQ ID NO: 32 (human); assay: ELISA, peptide on plate (10 ug/mL)
T6 peptide: EENMDAQWMQDEMEIGY

[13] = biological target: T1, full-length recombinant human PAD4; assay: Biacore T200, antibody captured by anti-human antibody, human PAD4 as analyte
Source text: The humanized anti-PAD4 antibodies derived from G8 and H7 were subjected to Biacore (GE Healthcare, Biacore T200) assay to evaluate their affinity. At that time, the combination of the frameworks was such that the H-chain framework was H4.00 and the L-chain framework was L4.29. The class of each antibody used was IgG1κ. Full-length recombinant human PAD4 was used as an antigen. A Human Antibody Capture kit (GE Healthcare, BR-1008-39) was used for the affinity assay. Specifically, in accordance with the standard protocol provided by the manufacture, NHS/EDC was used and an amine coupling method, in which a free carboxyl group is fixed on a surface of a CM5 chip, was used to immobilize a rabbit anti-human polyclonal antibody on the surface of a CM5 chip. Next, the humanized anti-PAD4 antibodies were each captured by the rabbit anti-human polyclonal antibody. Human PAD4 at each concentration was subjected to Biacore T200 measurement to create a kinetic sensorgram.

B1: A11 (antibody, IgG1, V domains shown)
VH: AVTLDESGGGLQTPGGALSLVCKASGFDFSSYGMGWMRQAPGKGLEYVAAIRNDGSWTGYGAAVKGHATISRDNGQSTVRLQLNNLRAEDTGTYYCAKTTGSRGGSIDAWGHGTEVIVS
VL: ASTQPSSVSANLGGTVEITCSGGGRYYYGWYQQKSPGSAPVTVIYANDKRPSDIPSRFSGSKSGSTGTLTITGVQAEDEAVYFCGSAETSSYVFGAGTTLTVL
notes: Chicken variable regions in mouse chimeric antibody (IgG1) expression vectors; also called anti-PAD4 antibody A11; A11 etc
Relative citrullination activity [1]: 64 relative to PBS = 100
Kd [2]: ≤ 9 nM
absorbance 490 nm/630 nm (Ala mutant SEQ ID NO: 34): 0.021 OD
absorbance 490 nm/630 nm (Ala mutant SEQ ID NO: 35): 0.023 OD
absorbance 490 nm/630 nm [3]: 0.039 OD
absorbance 490 nm/630 nm [4]: 0.043 OD
absorbance 490 nm/630 nm [5]: 2.15 OD
absorbance 490 nm/630 nm [6]: 2.11 OD
absorbance 490 nm/630 nm [7]: 2.15 OD
absorbance 490 nm/630 nm [8]: 2.08 OD
absorbance 490 nm/630 nm [9]: 0.206 OD
absorbance 490 nm/630 nm [10]: 0.511 OD
absorbance 490 nm/630 nm [11]: 1.31 OD
absorbance 490 nm/630 nm [12]: 0.063 OD

B3: G6 (antibody, IgG1, V domains shown)
VH: B1 VH with D28T, G35E, M37V, H67R, N74D, V79L, G92A, R103S
VL: B1 VL with G14E, E17K, R25N, V43L, D53N, S86T, E88D, S90G, S91K
notes: Chicken variable regions in mouse chimeric antibody (IgG1) expression vectors; also called anti-PAD4 antibody G6; A11 etc
Relative citrullination activity [1]: 69 relative to PBS = 100
Kd [2]: ≤ 9 nM
absorbance 490 nm/630 nm (Ala mutant SEQ ID NO: 32): 0.035 OD
absorbance 490 nm/630 nm (Ala mutant SEQ ID NO: 34): 0.042 OD
absorbance 490 nm/630 nm (Ala mutant SEQ ID NO: 35): 0.015 OD
absorbance 490 nm/630 nm [3]: 0.018 OD
absorbance 490 nm/630 nm [4]: 0.083 OD
absorbance 490 nm/630 nm [5]: 2.11 OD
absorbance 490 nm/630 nm [6]: 2.07 OD
absorbance 490 nm/630 nm [7]: 2.12 OD
absorbance 490 nm/630 nm [8]: 2.01 OD
absorbance 490 nm/630 nm [9]: 0.166 OD
absorbance 490 nm/630 nm [10]: 0.437 OD
absorbance 490 nm/630 nm [11]: 1.16 OD
absorbance 490 nm/630 nm [12]: 0.075 OD

B4: G8 (antibody, IgG1, V domains shown)
VH: B1 VH with D28T, S31T, G33A, H67R, S71L, N84S, T99Y, R103S, D108G
VL: ASTQPSSVSANLGGTVEITCSGGNRNYYYGWYQQKSPGSAPVTLIYANDKRPSNIPSRFSGSKSGSTGTLTITGVQAEDEAVYFCGTADTGKYVFGAGTTLTVL
notes: Chicken variable regions in mouse chimeric antibody (IgG1) expression vectors; also called anti-PAD4 antibody G8; A11 etc
Relative citrullination activity [1]: 63 relative to PBS = 100
Kd [2]: ≤ 9 nM
absorbance 490 nm/630 nm (Ala mutant SEQ ID NO: 32): 0.083 OD
absorbance 490 nm/630 nm (Ala mutant SEQ ID NO: 34): 0.04 OD
absorbance 490 nm/630 nm (Ala mutant SEQ ID NO: 35): 0.233 OD
absorbance 490 nm/630 nm [3]: 0.065 OD
absorbance 490 nm/630 nm [5]: 2.12 OD
absorbance 490 nm/630 nm [6]: 2.1 OD
absorbance 490 nm/630 nm [7]: 2.12 OD
absorbance 490 nm/630 nm [8]: 2.08 OD
absorbance 490 nm/630 nm [9]: 0.184 OD
absorbance 490 nm/630 nm [10]: 0.544 OD
absorbance 490 nm/630 nm [11]: 1.34 OD
absorbance 490 nm/630 nm [12]: 0.1 OD

B6: G9 (antibody, IgG1, V domains shown)
VH: B1 VH with D28T, S31T, G33A, H67R, S71L, N84S, T99Y, R103S, D108G
VL: B1 VL with S2V, S6A
notes: Chicken variable regions in mouse chimeric antibody (IgG1) expression vectors; also called anti-PAD4 antibody G9; A11 etc
Relative citrullination activity [1]: 68 relative to PBS = 100
Kd [2]: ≤ 9 nM
absorbance 490 nm/630 nm (Ala mutant SEQ ID NO: 32): 0.039 OD
absorbance 490 nm/630 nm (Ala mutant SEQ ID NO: 34): 0.038 OD
absorbance 490 nm/630 nm (Ala mutant SEQ ID NO: 35): 0.253 OD
absorbance 490 nm/630 nm [3]: 0.019 OD
absorbance 490 nm/630 nm [5]: 2.1 OD
absorbance 490 nm/630 nm [6]: 2.08 OD
absorbance 490 nm/630 nm [7]: 2.11 OD
absorbance 490 nm/630 nm [8]: 2.07 OD
absorbance 490 nm/630 nm [9]: 0.187 OD
absorbance 490 nm/630 nm [10]: 0.534 OD
absorbance 490 nm/630 nm [11]: 1.36 OD
absorbance 490 nm/630 nm [12]: 0.082 OD

B7: Humanized Ab #G8-H4.00/L4.29 (IgG1κ) (antibody, V domains shown)
VH: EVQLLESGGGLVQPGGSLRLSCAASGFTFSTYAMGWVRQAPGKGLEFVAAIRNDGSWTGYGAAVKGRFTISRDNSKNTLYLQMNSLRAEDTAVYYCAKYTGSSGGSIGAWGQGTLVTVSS
VL: SYELTQPPSVSVSPGQTARITCSGGNRNYYYGWYQQKPGQAPVTVIYANDKRPSGIPERFSGSNSGSTTTLTISGVQAEDEADYYCGTADTGKYVFGGGTKLTVLG
notes: Full-length heavy and light chains; also called humanized anti-PAD4 antibody derived from G8; G8 VH H4.00 / VL L4.29
Kd [2]: ≤ 9 nM

Second part, the binder after the results:

Relative citrullination activity [1]: 35 relative to PBS = 100
Kd [2]: ≤ 9 nM
absorbance 490 nm/630 nm (Ala mutant SEQ ID NO: 32): 0.033 OD
absorbance 490 nm/630 nm (Ala mutant SEQ ID NO: 34): 0.066 OD
absorbance 490 nm/630 nm (Ala mutant SEQ ID NO: 35): 0.065 OD
absorbance 490 nm/630 nm [3]: 0.016 OD
absorbance 490 nm/630 nm [4]: 0.044 OD
absorbance 490 nm/630 nm [5]: 2.11 OD
absorbance 490 nm/630 nm [6]: 2.11 OD
absorbance 490 nm/630 nm [7]: 2.12 OD
absorbance 490 nm/630 nm [8]: 2.07 OD
absorbance 490 nm/630 nm [9]: 0.217 OD
absorbance 490 nm/630 nm [10]: 0.537 OD
absorbance 490 nm/630 nm [11]: 1.35 OD
absorbance 490 nm/630 nm [12]: 0.111 OD
B2: H7 (antibody, IgG1, V domains shown)
VH: B1 VH with D28T, S31T, G33A, H67R, S71L, N84S, T99Y, R103S, D108G
VL: ASTQPSSVSANPGGTVEITCSGGSGRYYYGWYQQKSPGSAPVTVIYSSTHRPSNIPSRFSGSKSGSTATLTITGVQAEDEAVYFCGTADSSSYVFGAGTTLTVL
notes: Chicken variable regions in mouse chimeric antibody (IgG1) expression vectors; also called anti-PAD4 antibody H7; A11 etc

Relative citrullination activity [1]: 59 relative to PBS = 100
Kd [2]: ≤ 9 nM
absorbance 490 nm/630 nm (Ala mutant SEQ ID NO: 34): 0.047 OD
absorbance 490 nm/630 nm (Ala mutant SEQ ID NO: 35): 0.017 OD
absorbance 490 nm/630 nm [3]: 0.022 OD
absorbance 490 nm/630 nm [4]: 0.027 OD
absorbance 490 nm/630 nm [5]: 2.11 OD
absorbance 490 nm/630 nm [6]: 2.08 OD
absorbance 490 nm/630 nm [7]: 2.12 OD
absorbance 490 nm/630 nm [8]: 2.08 OD
absorbance 490 nm/630 nm [9]: 0.176 OD
absorbance 490 nm/630 nm [10]: 0.489 OD
absorbance 490 nm/630 nm [11]: 1.36 OD
absorbance 490 nm/630 nm [12]: 0.07 OD
B5: E9 (antibody, IgG1, V domains shown)
VH: B1 VH with A17T, A24G, D28T, A62S, H67R, G92A, T100S, R103S, I107V
VL: B1 VL
notes: Chicken variable regions in mouse chimeric antibody (IgG1) expression vectors; also called anti-PAD4 antibody E9; A11 etc

Kd [2]: ≤ 9 nM
kon [13]: 613000 M⁻¹ s⁻¹
B8: Humanized Ab #H7-H4.00/L4.29 (IgG1κ) (antibody, V domains shown)
VH: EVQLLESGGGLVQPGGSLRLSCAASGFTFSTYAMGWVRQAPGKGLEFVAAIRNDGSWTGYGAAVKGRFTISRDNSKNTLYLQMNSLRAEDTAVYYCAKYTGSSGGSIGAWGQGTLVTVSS
VL: B7 VL with N26S, R27G, N28R, A48S, N49S, D50T, K51H, T91S, G92S, K93S
notes: Full-length heavy and light chains; also called humanized anti-PAD4 antibody derived from H7
